Assay results as given in patent US20020137684A1, “Ligand for enhancing oral and CNS delivery of biological agents” (priority 2000, published 2002).
Where no end group is shown, it is not given here. [ ]: non-standard residue; d: D form. TAMRA = carboxytetramethylrodamine

How the values were obtained:
Caco-2 monolayers [1] = assay: Inhibition of phage transport across Caco-2 monolayers by SEQ. ID. NO.:1-Peroxidase conjugate; conditions: 50 μg/ml conjugate, 3 hours
Description: The cell monolayers on the insert filter apically and basolaterally were rinsed twice on each side with PBS and pre-incubated with pre-warmed D-MEM for 30 min. The medium in apical chamber was gently removed. […] The inserts were transferred to the new chamber. ^3H-Manitol was used as a probe to monitor Caco-2 monolayer leakiness. The medium containing isotope-labeled compound, a phage that expresses a peptide comprising an amino acid sequence of SEQ. […] NO.:4 (5×10^9 cfu/ml) or wild-type phage (Control phage 1.5×10^9 cfu/ml) in the presence and absence of 50 μg/ml of SEQ. […] NO.:1-Peroxidase conjugate was added to the apical side. After 3 hours incubation, the media from apical and basolateral sides of the chamber was collected and used to determine the phage and ^3H-manitol transport across Caco-2 monolayers. The relative transport of compounds in % through Caco-2 was calculated as:
where Cb is a concentration of compound in basolateral chamber, Ca is a concentration of compound in the apical chamber, Vb is a volume of media in basolateral chamber and Va is a volume of media in the apical chamber. The transport of phage that expresses a peptide comprising an amino acid sequence of SEQ. […] NO.:4, or peptide SEQ. […] NO.:1-Peroxidase conjugate was detected.

Caco-2 monolayers [2] = assay: Transport of peroxidase conjugate across Caco-2 monolayers; conditions: 25 µg/ml apical, peroxidase activity
Description: A two-chamber Caco-2 model was used to evaluate the transport of a conjugate comprising peroxidase and a peptide comprising an amino acid sequence of SEQ. ID. NO.:1 across the intestinal barrier (IB) in vitro. […] The medium containing isotope-labeled compound, the SEQ. ID. NO.:1-Peroxidase conjugate ([…]) or Control Peroxidase conjugate ([…]) was added to the apical side of cultured Caco-2 monolayers.

CACO 2 cells = assay: Digestion of peptide in apical chamber of Caco-2 cells (HPLC); type: in vitro ADME, human
Description: Digestion of peptide SEQ. ID. NO.:2 in apical chamber was determined using HPLC. The samples were diluted 100 times with the media, and 0.200 mL of each was injected on a column RP-HPLC column Vydac 218TP54, pre equilibrated 15 minutes with 5 acetonitroile/water (10 mM phosphoric acid) at flow rate 1 mL per minute. Sample was eluted with two component gradient 1% per minute of acetonitrole (10 mM phosphoric acid)/water (10 mM phosphoric acid) at flow rate 1 mL per minute. Fluorescent detection was used with excitation wavelength 555 nm and emission wavelength 580 nm. The peptide SEQ. ID. NO.: 2 was eluted as sharp peak at 22.3 min. The percentage of remaining peptide was calculated as: […]
where A—area under the peak at 22.3 min, SUM(Ai)—the sum of area of all peaks eluted between 13 and 26 minutes.

Caco-2 monolayers [3] = assay: Transport of peptides across Caco-2 monolayers (Transwell, fluorescence); type: in vitro ADME, human; conditions: 50 micromol/L apical
Description: The desired numbers of Transwell (6.5mm diameter, 0.4 μm pore size) were placed in the wells of the tissue culture plates. The filters were wetted with medium (0.1 ml to the apical and 0.6 ml to the basolateral sides of Transwell) for 30 min in the CO2 incubator before the harvest of the cells from the flasks. The cells were re-suspended in the medium 5×10^5 cells/ml and 0.2 ml of cell suspension medium was added to the apical side of the Transwell and cultured in the CO2 incubator. The medium was changed every second day for 8-12 days to obtain well-differentiated monolayers suitable for transport experiences.
The medium in apical chamber was gently removed. […] The inserts were transferred to the new chamber. […] Peptide SEQ. ID. NO.: 2, or SEQ. ID.
The concentration of peptide in sample was determined by the fluorescence of the sample using excitation 530 nm, emission 590 nm. The concentration of dextran in samples was determined by the fluorescence of the sample using excitation 480 nm, emission 530 nm.

Substance	inhibition of transport of SEQ. ID. NO.:4 phage across Caco-2 monolayers (Caco-2 monolayers [1])	Transport through Caco-2 monolayers, P, % (Caco-2 monolayers [2]; 2 hours)	Transport through Caco-2 monolayers, P, % (Caco-2 monolayers [2]; 4 hours)	Remaining peptide [%] (CACO 2 cells; 0.5 h incubation with CACO 2 cells)	Remaining peptide [%] (CACO 2 cells; 1 h incubation with CACO 2 cells)	Remaining peptide [%] (CACO 2 cells; 2 h incubation with CACO 2 cells)	Transport [%] (Caco-2 monolayers [3]; 0.5 h)	Transport [%] (Caco-2 monolayers [3]; 1.0 h)	Transport [%] (Caco-2 monolayers [3]; 2.0 h)	Transport [%] (Caco-2 monolayers [3]; […])
SEQ. ID. NO.:1-Peroxidase Conjugate (Ac-CRVLDGDRTRWG; also: peroxidase conjugate)	completely inhibited	0.35 ± 0.014%	0.705 ± 0.09%	–	–	–	–	–	–	–
tamra-Ala-Ser-Ala-Arg-Val-Leu-Asp-Gly-Asp-Arg-Thr-Arg-Trp-Gly-NH2 ({TAMRA}-ASARVLDGDRTRWG-NH2) [SEQ. ID. NO.: 2]	–	–	–	86%	84%	63%	0.22%	0.16%	1.23%	0.71%
dextran [reference compound]	–	–	–	–	–	–	0.05%	0.16%	0.63%	0.38%
tamra-D-Ala-D-Ser-D-Ala-D-Arg-D-Val-D-Leu-D-Asp-D-Gly-D-Asp-D-Arg-D-Thr-D-Arg-D-Trp-D-Gly-NH2 ({TAMRA}-[dA][dS][dA][dR][dV][dL][dD]G[dD][dR][dT][dR][dW]G-NH2) [SEQ. ID. NO. 3]	–	–	–	–	–	–	0.06%	0.43%	1.03%	0.30%
